{"source": "paper PMC2113082", "about": "(The Journal of Cell Biology, 1984)", "binders": {"B1": {"name": "Phosphorylase b (enzyme, rabbit, UniProt P00489 1-843, looked up)", "chain": "MSRPLSDQEKRKQISVRGLAGVENVTELKKNFNRHLHFTLVKDRNVATPRDYYFALAHTVRDHLVGRWIRTQQHYYEKDPKRIYYLSLEFYMGRTLQNTMVNLALENACDEATYQLGLDMEELEEIEEDAGLGNGGLGRLAACFLDSMATLGLAAYGYGIRYEFGIFNQKICGGWQMEEADDWLRYGNPWEKARPEFTLPVHFYGRVEHTSQGAKWVDTQVVLAMPYDTPVPGYRNNVVNTMRLWSAKAPNDFNLKDFNVGGYIQAVLDRNLAENISRVLYPNDNFFEGKELRLKQEYFVVAATLQDIIRRFKSSKFGCRDPVRTNFDAFPDKVAIQLNDTHPSLAIPELMRVLVDLERLDWDKAWEVTVKTCAYTNHTVLPEALERWPVHLLETLLPRHLQIIYEINQRFLNRVAAAFPGDVDRLRRMSLVEEGAVKRINMAHLCIAGSHAVNGVARIHSEILKKTIFKDFYELEPHKFQNKTNGITPRRWLVLCNPGLAEIIAERIGEEYISDLDQLRKLLSYVDDEAFIRDVAKVKQENKLKFAAYLEREYKVHINPNSLFDVQVKRIHEYKRQLLNCLHVITLYNRIKKEPNKFVVPRTVMIGGKAAPGYHMAKMIIKLITAIGDVVNHDPVVGDRLRVIFLENYRVSLAEKVIPAADLSEQISTAGTEASGTGNMKFMLNGALTIGTMDGANVEMAEEAGEENFFIFGMRVEDVDRLDQRGYNAQEYYDRIPELRQIIEQLSSGFFSPKQPDLFKDIVNMLMHHDRFKVFADYEEYVKCQERVSALYKNPREWTRMVIRNIATSGKFSSDRTIAQYAREIWGVEPSRQRLPAPDEKIP"}}, "target": "von Willebrand factor (human, UniProt P04275 764-2813)", "sequence (P04275 764-2813)": "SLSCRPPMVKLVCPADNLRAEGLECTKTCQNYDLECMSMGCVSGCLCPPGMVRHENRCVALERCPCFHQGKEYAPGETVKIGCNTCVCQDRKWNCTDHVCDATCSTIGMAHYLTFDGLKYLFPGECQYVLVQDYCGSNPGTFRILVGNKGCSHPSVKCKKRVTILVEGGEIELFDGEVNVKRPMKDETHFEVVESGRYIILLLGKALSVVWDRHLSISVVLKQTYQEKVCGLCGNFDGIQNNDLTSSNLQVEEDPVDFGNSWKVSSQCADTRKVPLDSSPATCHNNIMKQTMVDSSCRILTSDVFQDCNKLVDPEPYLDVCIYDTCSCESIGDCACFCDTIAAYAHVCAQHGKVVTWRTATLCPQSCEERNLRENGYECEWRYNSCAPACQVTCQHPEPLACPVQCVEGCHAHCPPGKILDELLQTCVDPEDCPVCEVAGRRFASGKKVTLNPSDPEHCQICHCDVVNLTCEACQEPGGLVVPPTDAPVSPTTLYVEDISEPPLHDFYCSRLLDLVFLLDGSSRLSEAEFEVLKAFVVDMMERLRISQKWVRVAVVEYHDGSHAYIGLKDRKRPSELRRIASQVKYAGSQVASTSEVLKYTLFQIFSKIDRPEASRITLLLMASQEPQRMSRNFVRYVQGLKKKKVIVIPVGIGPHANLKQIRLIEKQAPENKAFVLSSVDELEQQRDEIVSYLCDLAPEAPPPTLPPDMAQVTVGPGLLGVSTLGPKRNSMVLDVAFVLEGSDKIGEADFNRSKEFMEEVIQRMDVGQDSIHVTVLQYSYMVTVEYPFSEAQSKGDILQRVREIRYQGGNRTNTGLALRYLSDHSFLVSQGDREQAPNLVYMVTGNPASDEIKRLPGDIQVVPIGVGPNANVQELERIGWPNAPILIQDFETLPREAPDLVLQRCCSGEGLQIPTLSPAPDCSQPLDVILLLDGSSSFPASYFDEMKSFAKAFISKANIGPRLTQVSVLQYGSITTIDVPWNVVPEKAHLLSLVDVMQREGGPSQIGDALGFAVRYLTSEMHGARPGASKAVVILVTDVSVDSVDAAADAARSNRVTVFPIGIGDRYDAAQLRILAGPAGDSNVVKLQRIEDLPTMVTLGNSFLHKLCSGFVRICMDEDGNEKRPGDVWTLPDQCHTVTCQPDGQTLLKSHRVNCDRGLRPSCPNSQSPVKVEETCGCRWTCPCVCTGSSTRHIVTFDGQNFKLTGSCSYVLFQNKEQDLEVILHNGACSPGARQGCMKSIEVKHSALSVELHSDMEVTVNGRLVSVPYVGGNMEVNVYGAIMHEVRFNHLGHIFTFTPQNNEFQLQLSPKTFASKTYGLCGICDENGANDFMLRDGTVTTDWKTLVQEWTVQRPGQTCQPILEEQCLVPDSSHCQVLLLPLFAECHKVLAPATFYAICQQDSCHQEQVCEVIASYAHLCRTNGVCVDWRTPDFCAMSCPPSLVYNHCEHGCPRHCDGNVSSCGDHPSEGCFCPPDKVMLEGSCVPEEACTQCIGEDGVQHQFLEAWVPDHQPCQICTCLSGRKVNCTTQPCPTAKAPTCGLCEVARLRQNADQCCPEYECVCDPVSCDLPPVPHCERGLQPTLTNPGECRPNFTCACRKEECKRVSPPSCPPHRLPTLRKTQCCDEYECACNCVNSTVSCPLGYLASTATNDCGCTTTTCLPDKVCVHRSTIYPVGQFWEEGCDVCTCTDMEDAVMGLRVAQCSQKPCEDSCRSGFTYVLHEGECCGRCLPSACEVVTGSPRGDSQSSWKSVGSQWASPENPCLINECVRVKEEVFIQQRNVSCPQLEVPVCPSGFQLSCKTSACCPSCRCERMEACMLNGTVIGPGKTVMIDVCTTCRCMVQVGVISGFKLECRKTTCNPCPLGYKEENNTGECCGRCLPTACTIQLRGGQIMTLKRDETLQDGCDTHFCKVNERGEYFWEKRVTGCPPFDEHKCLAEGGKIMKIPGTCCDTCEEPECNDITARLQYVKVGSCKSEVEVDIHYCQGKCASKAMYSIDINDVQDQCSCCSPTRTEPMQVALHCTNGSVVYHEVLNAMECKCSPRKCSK", "assay": "ELISA", "data": [{"binder": "B1", "values": [{"measurement": "binding result", "value": "binds"}]}]}
